The values that follow come from US20220259593A1, “CONTROL OF MAMMALIAN GENE DOSAGE USING CRISPR” (The Regents of the University of California, priority 2019, published 2022).

Residue numbers refer to the chain shown, from its start.

This data set relates to K562 CRISPRi cells. The data set can be described thus: Constant region variant library pooled growth screen, K562. It counts as cell-based, human. The following applies: sgRNA constant region variants. The method, boiled down:
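Cells were selected with puromycin for 2 days and then kept in RPMI-1640 spinner cultures, with duplicates handled separately. Targeting sequences comprised 3 sgRNAs per essential gene for 10 genes plus six non-targeting controls. Activities were normalized against pairing with the unmodified scaffold.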

[1] abbreviates: activity relative to the unmodified constant region cr995.
[2] abbreviates: activity relative to the original, un-modified constant region cr995.

B1: cr591 (nucleic acid)
guide: GTTTAAGAGCTAAGCTGGAAACAGCATAGCAAGTTTAAATAAGGCTAGTCCGTTGTCTACTTGAAAAAGTGGCACCGAGTCGGTGCT
modifications: listed as DNA, chemistry not fully specified
Under setting [1], B1 registered a Mean relative activity of 0.2933.

B2: cr237 (nucleic acid)
guide: B1 guide with C45A, G48T, G55A, T58A, T61G, A68C, G77C, C81G
modifications: listed as DNA, chemistry not fully specified
Under setting [1], B2 came in with a Mean relative activity of 0.2843.

B3: cr892 (nucleic acid)
guide: B1 guide with G55A, T58A, T61G, A68C, A74G, C75A, G83T, T84C
modifications: listed as DNA, chemistry not fully specified
Turning to B3, the Mean relative activity under setting [2] is on record as 1.041.

B4: cr374 (nucleic acid)
guide: B1 guide with C45A, G55A, T58A
modifications: listed as DNA, chemistry not fully specified
B4 registered a Mean relative activity under setting [1] of 0.2686.

B5: cr217 (nucleic acid)
guide: B1 guide with G33T, G55A, T58A, A65C
modifications: listed as DNA, chemistry not fully specified
For the molecule B5, under setting [1], the Mean relative activity was found to be 0.2802.

B6: cr532 (nucleic acid)
guide: B1 guide with G55A, T58A, T61G, A68C, G72A, A74T, T84A, C86T
modifications: listed as DNA, chemistry not fully specified
B6 displayed a Mean relative activity under setting [2] of 1.093.

B7: cr972 (nucleic acid)
guide: B1 guide with G44T, C45G, G48C, C50A, G55A, T58A, T61C, A68G
modifications: listed as DNA, chemistry not fully specified
For the molecule B7, the Mean relative activity under setting [1] turned out to be 0.2767.

B8: cr417 (nucleic acid)
guide: B1 guide with G33T, G55A, T58A, A66G
modifications: listed as DNA, chemistry not fully specified
Turning to B8, under setting [1], the Mean relative activity came out at 0.2821.

B9: cr027 (nucleic acid)
guide: B1 guide with T3C, G7A, G55A, T58A
modifications: listed as DNA, chemistry not fully specified
In turn, B9 had a Mean relative activity under setting [1] of 0.2878.

B10: cr073 (nucleic acid)
guide: B1 guide with A5T, A8C, G55A, T58A
modifications: listed as DNA, chemistry not fully specified
Take B10: the Mean relative activity under setting [1] is recorded as 0.265.

B11: cr154 (nucleic acid)
guide: B1 guide with A28C, G52A, G55A, T58A
modifications: listed as DNA, chemistry not fully specified
Molecule B11 registered a Mean relative activity under setting [1] of 0.2827.

B12: cr076 (nucleic acid)
guide: B1 guide with G1A, T2A, G55A, T58A
modifications: listed as DNA, chemistry not fully specified
For the molecule B12, under setting [1], the Mean relative activity came out at 0.2741.

B13: cr992 (nucleic acid)
guide: B1 guide with A28T, G52A, G55A, T58A
modifications: listed as DNA, chemistry not fully specified
For the molecule B13, under setting [1], the Mean relative activity was 0.2785.

B14: cr654 (nucleic acid)
guide: B1 guide with T34A, G55A, T58A, A65T
modifications: listed as DNA, chemistry not fully specified
In turn, B14 returned a Mean relative activity under setting [1] of 0.2692.

B15: cr077 (nucleic acid)
guide: B1 guide with T2A, A8T, G55A, T58A
modifications: listed as DNA, chemistry not fully specified
Molecule B15 yielded a Mean relative activity under setting [1] of 0.2538.

B16: cr110 (nucleic acid)
guide: B1 guide with C45A, G48T, G55A, T58A, C75T, C76T, G82A, G83A
modifications: listed as DNA, chemistry not fully specified
In turn, B16 gave a Mean relative activity under setting [1] of 0.2547.

B17: cr982 (nucleic acid)
guide: B1 guide with T34C, G55A, T58A, C75A, G83T
modifications: listed as DNA, chemistry not fully specified
On to B17, for which the Mean relative activity under setting [1] is listed as 0.2842.

B18: cr379 (nucleic acid)
guide: B1 guide with A26C, G55A, T58A
modifications: listed as DNA, chemistry not fully specified
Molecule B18 came in with a Mean relative activity under setting [2] of 1.041.

B19: cr344 (nucleic acid)
guide: B1 guide with G52A, G55A, T58A, A66T
modifications: listed as DNA, chemistry not fully specified
Turning to B19, under setting [1], the Mean relative activity is recorded as 0.2836.

B20: cr125 (nucleic acid)
guide: B1 guide with G33T, G55A, T58A, A65T
modifications: listed as DNA, chemistry not fully specified
B20 had a Mean relative activity under setting [1] of 0.2852.

B21: cr480 (nucleic acid)
guide: B1 guide with G55A, T58A, C60A, G69T, G72A, G77T, C81A, C86T
modifications: listed as DNA, chemistry not fully specified
The molecule B21 yielded a Mean relative activity under setting [1] of 0.2543.

B22: cr965 (nucleic acid)
guide: B1 guide with C45G, G48C, G55A, T58A, A74C, C75T, G83A, T84G
modifications: listed as DNA, chemistry not fully specified
As to B22, the Mean relative activity under setting [1] is reported as 0.2572.

B23: cr246 (nucleic acid)
guide: B1 guide with T40A, A47G, G55A, T58A
modifications: listed as DNA, chemistry not fully specified
With B23, the Mean relative activity under setting [1] is listed as 0.2779.

B24: cr907 (nucleic acid)
guide: B1 guide with G52A, G55A, T58A, A64T, G79T
modifications: listed as DNA, chemistry not fully specified
B24: the Mean relative activity under setting [1] was determined as 0.2821.

B25: cr331 (nucleic acid)
guide: B1 guide with T34C, G55A, T58A, C75T, G83A
modifications: listed as DNA, chemistry not fully specified
In turn, B25 gave a Mean relative activity under setting [1] of 0.2828.

B26: cr696 (nucleic acid)
guide: B1 guide with A31G, A47C, G55A, T58C
modifications: listed as DNA, chemistry not fully specified
As for B26, the Mean relative activity under setting [1] was 0.2553.

B27: cr277 (nucleic acid)
guide: B1 guide with G43A, C51T, G55A, T58A, T62A, A67T, C76A, G82T
modifications: listed as DNA, chemistry not fully specified
Under setting [1], B27 yielded a Mean relative activity of 0.2732.

B28: cr046 (nucleic acid)
guide: B1 guide with T2G, G7C, G55A, T58A
modifications: listed as DNA, chemistry not fully specified
B28 returned a Mean relative activity under setting [1] of 0.2592.
